Measured values taken from patent publication US20070253966A1.

Molecular target: human GLP-1 receptor (human) (UniProt P43220)
Experiment: cell-based or functional assay

Chain of UniProt P43220 (P43220 24-463): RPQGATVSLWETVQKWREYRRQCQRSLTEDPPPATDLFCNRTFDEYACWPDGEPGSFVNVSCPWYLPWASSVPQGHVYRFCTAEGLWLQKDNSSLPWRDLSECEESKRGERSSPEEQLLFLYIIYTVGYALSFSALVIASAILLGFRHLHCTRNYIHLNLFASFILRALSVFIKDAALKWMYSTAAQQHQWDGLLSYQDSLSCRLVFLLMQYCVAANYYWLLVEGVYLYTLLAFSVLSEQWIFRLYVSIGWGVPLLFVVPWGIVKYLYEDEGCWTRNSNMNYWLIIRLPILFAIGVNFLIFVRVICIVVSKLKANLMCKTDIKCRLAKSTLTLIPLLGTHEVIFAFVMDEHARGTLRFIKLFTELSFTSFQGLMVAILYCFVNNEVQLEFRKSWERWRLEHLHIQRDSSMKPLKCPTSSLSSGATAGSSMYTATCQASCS

| Activity (EC50 relative to Val^8-GLP-1(7-37)OH), CRE-BLAM beta-lactamase reporter in HEK-293 cells expressing human GLP-1 receptor [%] | Activity (EC50 relative to Val^8-GLP-1(7-37)OH, corrected for 2-fold molarity of the dimer), CRE-Luciferase reporter in HEK-293 cells stably expressing human GLP-1 receptor [%] | Activity (EC50 relative to Val^8-GLP-1(7-37)OH), CRE-Luciferase reporter in HEK-293 cells stably expressing human GLP-1 receptor [%] | Substance |
| --- | --- | --- | --- |
| 314 | 595 | – | Gly^8-Glu^22-GLP-1(7-37)-1.5L-IgG4 (S228P, F234A, L235A) (from UniProt P01275 98-128) (Fc fusion) |
| 468 | 1120 | – | Gly^8-Glu^22-GLP-1(7-37)-1L-IgG4 (S228P, F234A, L235A) (from UniProt P01275 98-128) (Fc fusion) |
| 301 | 535 | – | Gly^8-Glu^22-GLP-1(7-37)-2L-IgG4 (S228P, F234A, L235A) (from UniProt P01275 98-128) (Fc fusion) |
| 100 | – | 100 | Val^8-GLP-1(7-37)OH (from UniProt P01275 21-180) (peptide) |
